B1: HB-22(B): NCS-apoprotein and γ-rhodomycin Y bound together, molar ratio 1:5 (conjugate, UniProt P0A3R9 35-147, looked up)
Neocarzinostatin: AAPTATVTPSSGLSDGTVVKVAGAGLQAGTAYDVGQCAWVDTGVLACNPADFSSVTADANGSASTSLTVRRSFEGFLFDGTRWGTVDCTTAACQVGLSDAAGNGPEGVAISFN
modifications: γ-rhodomycin Y conjugate, 1:5
B2: HB-22(A): NCS-apoprotein and γ-rhodomycin Y bound together, molar ratio 1:1 (conjugate, UniProt P0A3R9 35-147, looked up)
Neocarzinostatin: AAPTATVTPSSGLSDGTVVKVAGAGLQAGTAYDVGQCAWVDTGVLACNPADFSSVTADANGSASTSLTVRRSFEGFLFDGTRWGTVDCTTAACQVGLSDAAGNGPEGVAISFN
modifications: complex with gamma-rhodomycin Y, 1:1
B3: HBW-18(A): NCS-apoprotein and cosmomycin A bound together, molar ratio 1:1 (conjugate, UniProt P0A3R9 35-147, looked up)
Neocarzinostatin: AAPTATVTPSSGLSDGTVVKVAGAGLQAGTAYDVGQCAWVDTGVLACNPADFSSVTADANGSASTSLTVRRSFEGFLFDGTRWGTVDCTTAACQVGLSDAAGNGPEGVAISFN
modifications: complex with cosmomycin A, 1:1
B4: HBW-10(B): NCS-apoprotein and daunomycin bound through hydrogen bond and/or hydrophobic bond, molar ratio 1:5 (conjugate, UniProt P0A3R9 35-147, looked up)
Neocarzinostatin: AAPTATVTPSSGLSDGTVVKVAGAGLQAGTAYDVGQCAWVDTGVLACNPADFSSVTADANGSASTSLTVRRSFEGFLFDGTRWGTVDCTTAACQVGLSDAAGNGPEGVAISFN
modifications: noncovalent complex with daunomycin, 1:5
B5: HBW-18(B): NCS-apoprotein and cosmomycin A bound together, molar ratio 1:5 (conjugate, UniProt P0A3R9 35-147, looked up)
Neocarzinostatin: AAPTATVTPSSGLSDGTVVKVAGAGLQAGTAYDVGQCAWVDTGVLACNPADFSSVTADANGSASTSLTVRRSFEGFLFDGTRWGTVDCTTAACQVGLSDAAGNGPEGVAISFN
modifications: complex with cosmomycin A, 1:5
B6: HBW-22(A): NCS-apoprotein and γ-rhodomycin Y bound together, molar ratio 1:1 (conjugate, UniProt P0A3R9 35-147, looked up)
Neocarzinostatin: AAPTATVTPSSGLSDGTVVKVAGAGLQAGTAYDVGQCAWVDTGVLACNPADFSSVTADANGSASTSLTVRRSFEGFLFDGTRWGTVDCTTAACQVGLSDAAGNGPEGVAISFN
modifications: γ-rhodomycin Y conjugate, 1:1
B7: HBW-20(A): NCS-apoprotein and adriamycin bound together, molar ratio 1:1 (conjugate, UniProt P0A3R9 35-147, looked up)
Neocarzinostatin: AAPTATVTPSSGLSDGTVVKVAGAGLQAGTAYDVGQCAWVDTGVLACNPADFSSVTADANGSASTSLTVRRSFEGFLFDGTRWGTVDCTTAACQVGLSDAAGNGPEGVAISFN
modifications: noncovalent complex with adriamycin, 1:1
B8: HBW-20(B): NCS-apoprotein and adriamycin bound together, molar ratio 1:5 (conjugate, UniProt P0A3R9 35-147, looked up)
Neocarzinostatin: AAPTATVTPSSGLSDGTVVKVAGAGLQAGTAYDVGQCAWVDTGVLACNPADFSSVTADANGSASTSLTVRRSFEGFLFDGTRWGTVDCTTAACQVGLSDAAGNGPEGVAISFN
modifications: adriamycin conjugate, 1:5
B9: HBW-22(B): NCS-apoprotein and γ-rhodomycin Y bound together, molar ratio 1:5 (conjugate, UniProt P0A3R9 35-147, looked up)
Neocarzinostatin: AAPTATVTPSSGLSDGTVVKVAGAGLQAGTAYDVGQCAWVDTGVLACNPADFSSVTADANGSASTSLTVRRSFEGFLFDGTRWGTVDCTTAACQVGLSDAAGNGPEGVAISFN
modifications: complex with gamma-rhodomycin Y, 1:5
B10: HB-10(A): NCS-apoprotein and daunomycin combined at molar ratio 1:1 (conjugate, UniProt P0A3R9 35-147, looked up)
Neocarzinostatin: AAPTATVTPSSGLSDGTVVKVAGAGLQAGTAYDVGQCAWVDTGVLACNPADFSSVTADANGSASTSLTVRRSFEGFLFDGTRWGTVDCTTAACQVGLSDAAGNGPEGVAISFN
modifications: complex with daunomycin, 1:1
B11: HB-20(B): NCS-apoprotein and adriamycin bound together, molar ratio 1:5 (conjugate, UniProt P0A3R9 35-147, looked up)
Neocarzinostatin: AAPTATVTPSSGLSDGTVVKVAGAGLQAGTAYDVGQCAWVDTGVLACNPADFSSVTADANGSASTSLTVRRSFEGFLFDGTRWGTVDCTTAACQVGLSDAAGNGPEGVAISFN
modifications: complex with adriamycin, 1:5
B12: HB-10(D): NCS-apoprotein and daunomycin combined at molar ratio 4:1 (conjugate, UniProt P0A3R9 35-147, looked up)
Neocarzinostatin: AAPTATVTPSSGLSDGTVVKVAGAGLQAGTAYDVGQCAWVDTGVLACNPADFSSVTADANGSASTSLTVRRSFEGFLFDGTRWGTVDCTTAACQVGLSDAAGNGPEGVAISFN
modifications: complex with daunomycin, 4:1
B13: HB-10(C): NCS-apoprotein and daunomycin combined at molar ratio 2:1 (conjugate, UniProt P0A3R9 35-147, looked up)
Neocarzinostatin: AAPTATVTPSSGLSDGTVVKVAGAGLQAGTAYDVGQCAWVDTGVLACNPADFSSVTADANGSASTSLTVRRSFEGFLFDGTRWGTVDCTTAACQVGLSDAAGNGPEGVAISFN
modifications: daunomycin conjugate, 2:1
B14: HB-21(A): NCS-apoprotein and aclacinomycin A bound together, molar ratio 1:1 (conjugate, UniProt P0A3R9 35-147, looked up)
Neocarzinostatin: AAPTATVTPSSGLSDGTVVKVAGAGLQAGTAYDVGQCAWVDTGVLACNPADFSSVTADANGSASTSLTVRRSFEGFLFDGTRWGTVDCTTAACQVGLSDAAGNGPEGVAISFN
modifications: complex with aclacinomycin A, 1:1
B15: HB-21(B): NCS-apoprotein and aclacinomycin A bound together, molar ratio 1:5 (conjugate, UniProt P0A3R9 35-147, looked up)
Neocarzinostatin: AAPTATVTPSSGLSDGTVVKVAGAGLQAGTAYDVGQCAWVDTGVLACNPADFSSVTADANGSASTSLTVRRSFEGFLFDGTRWGTVDCTTAACQVGLSDAAGNGPEGVAISFN
modifications: aclacinomycin A conjugate, 1:5
B16: HB-20(A): NCS-apoprotein and adriamycin bound together, molar ratio 1:1 (conjugate, UniProt P0A3R9 35-147, looked up)
Neocarzinostatin: AAPTATVTPSSGLSDGTVVKVAGAGLQAGTAYDVGQCAWVDTGVLACNPADFSSVTADANGSASTSLTVRRSFEGFLFDGTRWGTVDCTTAACQVGLSDAAGNGPEGVAISFN
modifications: complex with adriamycin, 1:1
B17: HB-18(B): NCS-apoprotein and cosmomycin A bound together, molar ratio 1:5 (conjugate, UniProt P0A3R9 35-147, looked up)
Neocarzinostatin: AAPTATVTPSSGLSDGTVVKVAGAGLQAGTAYDVGQCAWVDTGVLACNPADFSSVTADANGSASTSLTVRRSFEGFLFDGTRWGTVDCTTAACQVGLSDAAGNGPEGVAISFN
modifications: cosmomycin A conjugate, 1:5
B18: HB-18(A): NCS-apoprotein and cosmomycin A bound together, molar ratio 1:1 (conjugate, UniProt P0A3R9 35-147, looked up)
Neocarzinostatin: AAPTATVTPSSGLSDGTVVKVAGAGLQAGTAYDVGQCAWVDTGVLACNPADFSSVTADANGSASTSLTVRRSFEGFLFDGTRWGTVDCTTAACQVGLSDAAGNGPEGVAISFN
modifications: cosmomycin A conjugate, 1:1
B19: HB-10(B): NCS-apoprotein and daunomycin combined at molar ratio 1:10 (conjugate, UniProt P0A3R9 35-147, looked up)
Neocarzinostatin: AAPTATVTPSSGLSDGTVVKVAGAGLQAGTAYDVGQCAWVDTGVLACNPADFSSVTADANGSASTSLTVRRSFEGFLFDGTRWGTVDCTTAACQVGLSDAAGNGPEGVAISFN
modifications: daunomycin conjugate, 1:10

The test system of the first assay is mouse L1210 leukemia. In words: antitumor activity against mouse L1210 leukemia, life prolongation rate. Format: in vivo. The following applies: dose 1 mg/Kg, once a day for five days starting 24 hours after tumor cell injection; control survival day = 100%. The protocol: These HB-6 substances were tested for their antitumor activity in terms of mouse L1210 leukemia. L1210 leukemia cells (1×10^5) were abdominally injected to each mouse, and the test sample was administered once a day for consecutive five days, with the first administration being started 24 hours after injection of the tumor cells. The result is summarized in Table 1, in which the antitumor activity of each drug is expressed as life prolongation rate, taking the survival day for the control group as 100%.
These HBW-6 substances were tested for their antitumor activity in terms of mouse L1210 leukemia. L1210 leukemia cells (1×10^5) were abdominally injected to each mouse, and the test sample was administered once a day for consecutive five days, with the first administration being started 24 hours after injection of the tumor cells. The result is summarized in Table 2, in which the antitumor activity of each drug is expressed as life prolongation rate, taking the survival day for the control group as 100%.
Consider B1, for which the “Life Prolongation Rate” value is recorded as 150%.
For the molecule B2, the “Life Prolongation Rate” value was found to be 145%.
On the same count and under the same terms, under B3 stands 170%; under B4, 270%.
Turning to B5, the “Life Prolongation Rate” value was found to be 175%.
For the molecule B6, the “Life Prolongation Rate” value stood at 158%.
Same read-out and setting: under B7 stands 268%; under B8, 245%.
Same read-out and setting: under B9 stands 162%.

The same assay, now with this note: dose 2 mg/Kg, once a day for five days starting 24 hours after tumor cell injection; control survival day = 100%.
Consider `CC[C@@]1(O)C[C@H](O[C@H]2C[C@H](N(C)C)[C@H](O[C@H]3C[C@H](O)[C@H](O[C@H]4CCC(=O)[C@H](C)O4)[C@H](C)O3)[C@H](C)O2)c2c(cc3c(c2O)C(=O)c2c(O)cccc2C3=O)[C@H]1C(=O)OC` [Aclacinomycin A, aclacinomycin A, reference compound], for which the “Life Prolongation Rate” value is reported as 135%.
On to `COc1cccc2c1C(=O)c1c(O)c3c(c(O)c1C2=O)C[C@@](O)(C(=O)CO)C[C@@H]3O[C@H]1C[C@H](N)[C@H](O)[C@H](C)O1` [Adriamycin, adriamycin, reference compound], for which the “Life Prolongation Rate” value is listed as 150%.
The same measure, in the same setting: under B10 stands 250%.
Same read-out and setting: under B11 stands 205%; under B12, 200%.
Same read-out and setting: under B13 stands 230%; under B14, 142%; under B15, 145%.
With B16, the “Life Prolongation Rate” value turned out to be 200%.
Consider B17, for which the “Life Prolongation Rate” value came to 170%.
The same measure, in the same setting: under B18 stands 168%; under B19, 265%.

The record behind these values is patent US4642335A, “Anthracycline compounds bound to hydrophilic polypeptides” (Ajinomoto Co., Inc., priority 1984, dated 1987).
